What was measured:
Assay in all cases: cell-based or functional assay
[1] = biological target: native IL-18 wild-type (SEQ ID NO: 1) (human) (UniProt Q14116)
[2] = biological target: IL-18 polypeptide C152 (human) (UniProt Q14116)
[3] = biological target: IL-18 polypeptide of SEQ ID NO: 47 (C38S, C68S, C76S, C127S) (human) (UniProt Q14116)
[4] = biological target: IL-18 polypeptide C153 (human) (UniProt Q14116)
[5] = biological target: IL-18 polypeptide C155 (human) (UniProt Q14116)
[6] = biological target: IL-18 polypeptide of SEQ ID NO: 51 (T63A) (human) (UniProt Q14116)
[7] = biological target: IL-18 polypeptide of SEQ ID NO: 59 (E6K, C38A, K53A) (human) (UniProt Q14116)
[8] = biological target: IL-18 polypeptide C156 (human) (UniProt Q14116)
[9] = biological target: IL-18 polypeptide C167 (human) (UniProt Q14116)
[10] = biological target: IL-18 polypeptide C163 (human) (UniProt Q14116)
[11] = biological target: IL-18 polypeptide C161 (human) (UniProt Q14116)
[12] = biological target: IL-18 polypeptide C162 (human) (UniProt Q14116)
[13] = biological target: IL-18 polypeptide of SEQ ID NO: 57 (E6K, C38S, K53A) (human) (UniProt Q14116)
[14] = biological target: IL-18 polypeptide of SEQ ID NO: 9 (E6K, C38A, K53A, C68A, D98C) (human) (UniProt Q14116)
[15] = biological target: IL-18 polypeptide of SEQ ID NO: 43 (E06K, K53A, S55A, Y01G) (human) (UniProt Q14116)
[16] = biological target: IL-18 polypeptide of SEQ ID NO: 5 (E6K, V11I, C38A, K53A, T63A, C68A, C76A, M86C, C127A) (human) (UniProt Q14116)
[17] = biological target: IL-18 polypeptide C149 (human) (UniProt Q14116)
[18] = biological target: IL-18 polypeptide C168 (human) (UniProt Q14116)
[19] = biological target: IL-18 polypeptide C144 (human) (UniProt Q14116)
[20] = biological target: IL-18 polypeptide C166 (human) (UniProt Q14116)
[21] = biological target: IL-18 polypeptide of SEQ ID NO: 52 (E06K, T63A) (human) (UniProt Q14116)
[22] = biological target: IL-18 polypeptide C148 (human) (UniProt Q14116)
[23] = biological target: Composition A (LZM-009 conjugated to IL-18 polypeptide of SEQ ID NO: 30) (human) (UniProt Q14116)
[24] = biological target: IL-18 polypeptide C150 (human) (UniProt Q14116)
[25] = biological target: IL-18 polypeptide of SEQ ID NO: 46 (E06K, K53A, S55A, M51G) (human) (UniProt Q14116)
[26] = biological target: IL-18 polypeptide of SEQ ID NO: 35 (Y01G, F02A, E06K, M51G, K53A, D54A, S55A, T63A) (human) (UniProt Q14116)
[27] = biological target: Composition B (Atezolizumab/Tecentriq conjugated to IL-18 polypeptide of SEQ ID NO: 30) (human) [IgG part: P0DOX5]
[28] = biological target: IL-18 polypeptide C160 (human) (UniProt Q14116)
[29] = biological target: Composition C (Trastuzumab/Herceptin conjugated to IL-18 polypeptide of SEQ ID NO: 30) (human)
[30] = biological target: IL-18 polypeptide of SEQ ID NO: 55 (K53A, T63A, C38S, C68S, C76S, C127S, K70C) (human) (UniProt Q14116)
[31] = biological target: IL-18 polypeptide C159 (human) (UniProt Q14116)
[32] = biological target: IL-18 polypeptide of SEQ ID NO: 36 (K53A) (human) (UniProt Q14116)
[33] = biological target: Composition D (LZM-009 conjugated to IL-18 polypeptide of SEQ ID NO: 31) (human) (UniProt Q14116)
[34] = biological target: IL-18 polypeptide C165 (human) (UniProt Q14116)
[35] = biological target: IL-18 polypeptide of SEQ ID NO: 42 (E06K, K53A, S55A, T63A) (human) (UniProt Q14116)
[36] = biological target: IL-18 polypeptide of SEQ ID NO: 60 (E6K, C38Q, K53A) (human) (UniProt Q14116)
[37] = biological target: IL-18 polypeptide C157 (human) (UniProt Q14116)
[38] = biological target: IL-18 polypeptide C145 (human) (UniProt Q14116)
[39] = biological target: IL-18 polypeptide of SEQ ID NO: 41 (K53A, S55A) (human) (UniProt Q14116)
[40] = biological target: IL-18 polypeptide of SEQ ID NO: 62 (E6K, C38A, K53A, C127A) (human) (UniProt Q14116)

- IC50 of IL-18BP on IFNγ secretion, NK92 cells [1]: 1.47 nM
- IC50 of IL-18BPa on IFNγ secretion by NK92 cells [1]: 0.781 nM
- IC50 of IL-18BP on IFNγ secretion, NK92 cells [2]: 7.85 nM
- IC50 of IL-18BP on IFNγ secretion, NK92 cells [3]: 0.444 nM
- IC50 of IL-18BP on IFNγ secretion, NK92 cells [4]: 2.22 nM
- IC50 of IL-18BP on IFNγ secretion, NK92 cells [5]: 3.23 nM
- IC50 of IL-18BP on IFNγ secretion, NK92 cells [6]: 0.239 nM
- IC50 of IL-18BP on IFNγ secretion, NK92 cells [7]: 654 nM
- IC50 of IL-18BP on IFNγ secretion, NK92 cells [8]: 0.681 nM
- IC50 of IL-18BP on IFNγ secretion, NK92 cells [9]: 0.809 nM
- IC50 of IL-18BP on IFNγ secretion, NK92 cells [10]: 0.823 nM
- IC50 of IL-18BP on IFNγ secretion, NK92 cells [11]: 1.07 nM
- IC50 of IL-18BP on IFNγ secretion, NK92 cells [12]: 7.29 nM
- IC50 of IL-18BP on IFNγ secretion, NK92 cells [13]: 146 nM
- IC50 of IL-18BP on IFNγ secretion, NK92 cells [14]: 961 nM
- IC50 of IL-18BP on IFNγ secretion, NK92 cells [15]: 27.8 nM
- IC50 of IL-18BP on IFNγ secretion, NK92 cells [16]: 62.4 nM
- IC50 of IL-18BP on IFNγ secretion, NK92 cells [17]: 1.17 nM
- IC50 of IL-18BP on IFNγ secretion, NK92 cells [18]: 0.176 nM
- IC50 of IL-18BP on IFNγ secretion, NK92 cells [19]: 7.52 nM
- IC50 of IL-18BP on IFNγ secretion, NK92 cells [20]: 0.44 nM
- IC50 of IL-18BP on IFNγ secretion, NK92 cells [21]: 47.1 nM
- IC50 of IL-18BP on IFNγ secretion, NK92 cells [22]: 5.05 nM
- IC50 of IL-18BPa on IFNγ secretion by NK92 cells [23]: 6.87 nM
- IC50 of IL-18BP on IFNγ secretion, NK92 cells [24]: 21.3 nM
- IC50 of IL-18BP on IFNγ secretion, NK92 cells [25]: 0.189 nM
- IC50 of IL-18BP on IFNγ secretion, NK92 cells [26]: > 55 nM
- IC50 of IL-18BPa on IFNγ secretion by NK92 cells [27]: > 1000 nM
- IC50 of IL-18BP on IFNγ secretion, NK92 cells [28]: 3.18 nM
- IC50 of IL-18BPa on IFNγ secretion by NK92 cells [29]: 21.4 nM
- IC50 of IL-18BP on IFNγ secretion, NK92 cells [30]: > 1000 nM
- IC50 of IL-18BP on IFNγ secretion, NK92 cells [31]: 1.81 nM
- IC50 of IL-18BP on IFNγ secretion, NK92 cells [32]: 27.3 nM
- IC50 of IL-18BPa on IFNγ secretion by NK92 cells [33]: 0.098 nM
- IC50 of IL-18BP on IFNγ secretion, NK92 cells [34]: 0.885 nM
- IC50 of IL-18BP on IFNγ secretion, NK92 cells [35]: 1060 nM
- IC50 of IL-18BP on IFNγ secretion, NK92 cells [36]: 780 nM
- IC50 of IL-18BP on IFNγ secretion, NK92 cells [37]: 6.08 nM
- IC50 of IL-18BP on IFNγ secretion, NK92 cells [38]: 10.2 nM
- IC50 of IL-18BP on IFNγ secretion, NK92 cells [39]: 37.3 nM
- IC50 of IL-18BP on IFNγ secretion, NK92 cells [40]: 284 nM
Substance: Fc fused human IL-18 binding protein isoform a (IL-18BPa; R&D systems, Cat #119-BP) (from UniProt O95998 31-194) (Fc fusion)
